Results from patent US20100143379A1 (priority 2005, published 2010).

Tested on: CCR5
Test: Cell surface receptor expression in monocyte-derived macrophages (FACS)
Format: cell-based
Details: 50 ng/ml with PMB 10 μg/ml, 48 h
Procedure: Cell surface expression of CCR5 and CXCR4 was analyzed by FACS after staining with FITC-conjugated anti-CCR5 and PE-conjugated anti-CXCR4 antibodies (Pharmingen). Results (percent of receptor-positive cells) are shown as mean±SE for three performed experiments.
Cell surface expression of CCR5 and CXCR4 was analyzed by FACS after staining with FITC-conjugated anti-CCR5 and PE-conjugated anti-CXCR4 antibodies (Pharmingen) (FIG. 9).

B1: MIF: macrophage migration inhibitory factor; recombinant mouse or human MIF purified essentially free of endotoxin (protein)
chain: PMFIVNTNVPRASVPDGFLSELTQQLAQATGKPPQYIAVHVVPDQLMAFGGSSEPCALCSLHSIGKIGGAQNRSYSKLLCGLLAERLRISPDRVYINYYDMNAANVGWNNSTFA
- CCR5 expression: substantially reduces CCR5 expression
